According to patent US20250034594A1, “RNA-GUIDED GENOME RECOMBINEERING AT KILOBASE SCALE” (THE BOARD OF TRUSTEES OF THE LELAND STANFORD JUNIOR …, priority 2021, published 2025):
Where two headings read alike, the source gives them in different places.

How the values were obtained:
[1] = test system: endogenous genome targets (ACTB, HSP90AA1); test: Arrayed SSAP library screening, mKate knock-in assay (editing efficiency); assay type: cell-based; settings: average of HSP90 and ACTB, 3 days after transfection; for Editing Efficiency (Normalized, Average, two targets): fold over negative control (Flag_HA); for Editing Efficiency (Absolute, Average, two targets): percent of mKate knock-in
Procedure, shortened: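 Mammalian cells in duplicate were transfected with SSAP-encoding plasmids, with about 50% transfection efficiency. mKate knock-in positive cells and viability, by flow-cytometric live counts, were quantified three days later. RecT SSAP served as positive control and Flag-HA plasmid as negative control.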

mammalian cells = test: Arrayed SSAP library screening, cell viability by live cell counts via flow cytometry; assay type: cell-based
Procedure, shortened: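 Each SSAP plasmid transfected in duplicate (~50% efficiency), with RecT SSAP as positive and Flag-HA as negative control. After three days, mKate-positive cells and viability by flow-cytometric live cell counts were quantified to gauge SSAP fitness effects.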

gene editing with Cas9 = test: Screen of 322 new SSAP proteins, gene editing activity with Cas9 (Table 5); assay type: cell-based; parameters: Cas9 with SSAP activity: scale not given here
Procedure, shortened: (§1)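 Editing screen of 322 newly identified, synthesized SSAPs, each co-used with Cas9 and with dCas9.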

gene editing with dCas9 = test: Screen of 322 new SSAP proteins, gene editing activity with dCas9 (Table 5); assay type: cell-based; parameters: dCas9 with SSAP activity: scale not given here
Procedure, shortened: as §1

[2] = test system: gene editing with Cas9 and dCas9; test: Screen of 322 new SSAP proteins, activity across all experiments (Cas9 and dCas9, Table 5); assay type: cell-based; parameters: scale not given here
Procedure, shortened: as §1

DYNLT1 locus = test: mKate knock-in gene-editing assay, RecE/RecT homologs, DYNLT1 locus; assay type: cell-based, human; settings: HEK293 cells, MCP fusion, n=3
Experimental: (§2) Transfection HEK293T cells were seeded into 96-well plates (Corning) 12-24 hours prior to transfection at a density of 30,000 cells/well, and 250 ng of total DNA was transfected per well. HeLa and HepG2 cells were seeded into 48-well plates (Corning) one day prior to transfection at a density of 50,000 and 30,000 cells/well respectively, and 400 ng of total DNA was transfected per well. Transfections were performed with Lipofectamine 3000 (Life Technologies) following the manufacturer's instructions.
(§3) Fluorescence-activated cell sorting (FACS) mKate knock-in efficiency was analyzed on a CytoFLEX flow cytometer (Beckman Coulter; Stanford Stem Cell FACS Core). 72 hours after transfection, cells were washed once with PBS and dissociated with TrypLE Express Enzyme (Thermo Fisher Scientific). Cell suspension was then transferred to a 96-well U-bottom plate (Thermo Fisher Scientific) and centrifuged at 300×G for 5 minutes. After removing the supernatant, pelleted cells were resuspended with 50 μl 4% FBS in PBS, and cells were sorted within 30 minutes of preparation.
(§4) 15 different species of microbes having RecE/RecT proteins were selected for a screen of various RecE and RecT proteins across the microbial kingdom (Table 3). Each protein was codon-optimized and synthesized. As previously described for E. coli RecE/RecT based REDIT systems, each protein was fused via E-XTEN linker to the MCP protein with additional nuclear localization signal. mKate knock-in gene-editing assay was used to measure efficiencies at DYNLT1 locus (FIG. 26A, Table 4) and HSP90AA1 locus (FIG. 26B, Table 4).

HSP90AA1 locus = test: mKate knock-in gene-editing assay, RecE/RecT homologs, HSP90AA1 locus; assay type: cell-based, human; settings: HEK293 cells, MCP fusion, n=3
Experimental: as §2, §3, §4

Row | Molecule | Editing Efficiency (Normalized, Average, two targets) [1] | Editing Efficiency (Absolute, Average, two targets) [1] | Cell Viability (Average, two targets) (mammalian cells) | Cas9 with SSAP activity (gene editing with Cas9) | Cas9 with SSAP activity (normalized) (gene editing with Cas9) | dCas9 with SSAP activity (gene editing with dCas9) | dCas9 with SSAP activity (normalized) (gene editing with dCas9) | Activity across all experiments [2] | Mean mKate+ (%), DYNLT1 (DYNLT1 locus) [%] | Mean mKate+ (%), HSP90AA1 (HSP90AA1 locus) [%] | Cell Viability (Average, two targets) (mammalian cells; live cell counts via flow cytometry, average of HSP90 and ACTB)
1 | SSAP_309: SEQ ID NO: 478; Paenibacillus sp. FSL R7-0333 (protein, listed as Paenibacillus sp.) TVAIELQVQETLDRILDSKHDALPSDFNKKRFSENCKAYVADEKDLHKYSPEEIAANLFKGAVLGLDFLAKECHLISGGVELKFQTDYKGEMKLTKKYSVRPLLDVYAKNVREGDEFREEVIEGRPVIHFAPLPFNASSIIGSFAVALFQDGGMVYESIPAGEIEEIRKNYGKSLGDAWDKSQGEMYKRTVLRRLCKTIETDFDAEQRLIYDAGGAFEFTKQPARSRQQSPFNPPEESEVTQDDRVAETDQG | 3.992 | 9.885 | 0.9224 | −3.975 | −1.807 | −9.420 | −2.412 | −6.697 |  |  | 
2 | Homolog_T2: RecT, Pantoea brenneri; SEQ ID NO: 117 (protein, listed as Pantoea brenneri) MSNQPPIASADLQKTQQSKQVANKTPEQTLVGFMNQPAMKSQLAAALPRHMTADRMIRIVTTEIRKTPQLAQCDQSSFIGAVVQCSQLGLEPGSALGHAYLLPFGNGRSKSGQSNVQLIIGYRGMIDLARRSGQIVSLSARVVRADDEFSFEYGLDENLVHRPGENEDAPITHVYAVARLKDGGTQFEVMTVKQVEKVKAQSKASSNGPWVTHWEEMAKKTVIRRLFKYLPVSIEMQKAVVLDEKAESDVDQDNASVLSAEYSVLESGDEATN |  |  |  |  |  |  |  |  | 12.0000 | 6.9233 | 
3 | SSAP_198: SEQ ID NO: 367; Streptomyces sp. ms191 (protein, listed as Streptomyces sp.) VEHYKADLAQVMPSHVKPDTFIRLAVGVLRRDRNLAQAAQNNPAALMGALMDAAQLGLTPGTEQFYLVPRKKAGRLEVQGIRGYQGEIELIYRAGAVSSVIVEVVRQADTFRYSPGRDERPEHEIDWDAEDRGPLRLVYAYAVMKDGATSKVVVLNRAQVMKAKAMSQGSDSAYSPWQKHEEAMWMKTAAHRLTKWVPTSAEYMREQLRAAAEVAAEHRPTPVAAAPGMPSVPGEDEAIEAEFVDEDEVA | 5.524 | 13.65 | 0.4444 | −4.061 | −0.571 | −2.578 | −0.849 | −3.320 |  |  | 
4 | SSAP_229: SEQ ID NO: 398; Amycolatopsis sp. CB00013 (protein, listed as Amycolatopsis sp.) TTQTVTSAVAQQDSSPAALVRKYRTDFATVLPSHIKPETWLRIATGALRRSSQLAHAAEKNPTSLLVALLDAARKGLEPGTEQYYLVPRKTKRGPEVLGITGYQGEVELMYRAGAVSSVKVEGVREHDTFAYNPGEHDRPVHEINWRANRGDLVLAYAYAYAKMRDGATSNVSVLSADDIAVILSKAEGADSPFSPWQWNPKAMWLKSAAHQLAKWVPTSAERVWQPDGPPLEAPPATPVTLPTVEDVVDAEVVEDWPTTPADTADSEQ | 3.971 | 9.8525 | 0.8776 | −2.969 | −0.509 | −9.275 |  | −6.122 |  |  | 
5 | Homolog_E1: RecE, Pantoea stewartii; SEQ ID NO: 116 (protein, listed as Pantoea stewartii) MQPGVYYDISNEEYHAGPGISKSQLDDIAVSPAIFQWRKSAPVDDEKTAALDLGTALHCLLLEPDEFSKRFMIGPEVNRRTNAGKQKEQDFLDMCEQQGITPITHDDNRKLRLMRDSAFAHPVARWMLETEGKAEASIYWNDRDTQILSRCRPDKLITEFSWCVDVKSTADIGKFQKDFYSYRYHVQDAFYSDGYEAQFCEVPTFAFLVVSSSIDCGRYPVQVFIMDQQAKDAGRAEYKRNLTTYAECQARNEWPGIATLSLPYWAKEIRNV |  |  |  |  |  |  |  |  | 5.7333 | 7.6567 | 
6 | Homolog_T1: RecT, Pantoea stewartii; SEQ ID NO: 115 (protein, listed as Pantoea stewartii) MSNQPPIASADLQKANTGKQVANKTPEQTLVGFMNQPAMKSQLAAALPRHMTADRMIRIVTTEIRKTPALATCDQSSFIGAVVQCSQLGLEPGSALGHAYLLPFGNGRSKSGQSNVQLIIGYRGMIDLARRSGQIVSLSARVVRADDEFSFEYGLDENLIHRPGENEDAPITHVYAVARLKDGGTQFEVMTVKQIEKVKAQSKASSNGPWVTHWEEMAKKTVIRRLFKYLPVSIEMQKAVILDEKAESDVDQDNASVLSAEYSVLDGSSEE |  |  |  |  |  |  |  |  | 11.7333 | 8.0733 | 
7 | SSAP_15: SEQ ID NO: 184 (protein) AKNELAKGSYLTDLQKLDGNTLRDFVDPKHQASPQELQALLAIVKGRNLNPFTKEVYFIKYGSAPAQIVVSKEAIMKRAEENPDFDGFEAGIVVETKDGAIERLTGTIVPKSATLRGGWCKVYRKDRSHAIEADADFAYYTTSKNLWQKMPALMIRKVAIVSAFREAFSESVGGLYTADEMQRETQAEVRARKMKEAYEEKLYLLTQMEAKSYKKTKSKNENEAKKTKEAEAIETVEEPTQDGNLEW | 5.477 | 13.55 | 1.226 | −1.876 | −0.850 | −0.701 | −2.250 | −1.288 |  |  | 
8 | Homolog_E2: RecE, Pantoea brenneri; SEQ ID NO: 118 (protein, listed as Pantoea brenneri) MQPGIYYDISNEDYHRGAGISKSQLDDIAISPAIYQWRKHAPVDEEKTAALDLGTALHCLLLEPDEFSKRFQIGPEVNRRTTAGKEKEKEFIERCEAEGITPITHDDNRKLKLMRDSALAHPIARWMLEAQGNAEASIYWNDRDAGVLSRCRPDKIITEFNWCVDVKSTADIMKFQKDFYSYRYHVQDAFYSDGYESHFHETPTFAFLAVSTSIDCGRYPVQVFIMDQQAKDAGRAEYKRNIHTFAECLSRNEWPGIATLSLPFWAKELRNE |  |  |  |  |  |  |  |  | 7.4533 | 6.4867 | 
9 | SSAP_199: SEQ ID NO: 368; uncultured Mediterranean phage uvMED (protein, uncultured Mediterranean phage uvMED) TSSITPLVAMQGTLEKMADKFTEALPRQMDVNKFISVAKLTLNKNPRLLQADKTSLMQTFMKAAQDGLYLDGKEAAAVQYGQSVQYIPMVEGIIKVLHNSGLIKTISAEVVYENDFFDYELGTAPKITHKPLIVGDRGKPMCVYAVAITTNDGEYYEVMNMDQINQCRQVSKASSSPHSPWVKWFDQMAKKTVIHRIAKRLPKNDAINSVVTVDDEPNFQQAVNVTPSEPKDSLSRLRDSIGMEGKDVEQAANDLLEKYNKEAREE | 4.602 | 11.4025 |  | −7.274 | −1.400 | −2.480 | −0.364 | −4.877 |  |  | 0.5186
